This assay concerns the target T1, C1q (human, UniProt P02745 23-245; P02746 28-253; P02747 29-245).
T1 construct: also called human C1q; purified C1q; source: bought: Calbiochem (purified); also endogenous, human serum; copies: + +
Description: ELISA; C1q binding assay: ES-62, PCh-BSA or CWPS coated to give equivalent CRP binding; CRP 0.4 ug/ml added, then purified C1q at 0, 0.2, 2.0 and 5.0 ug/ml, 1 h at room temperature; detected with anti-C1q. The following applies: both partners purified.

T1 sequence (P02745 23-245, chain 1 of 3): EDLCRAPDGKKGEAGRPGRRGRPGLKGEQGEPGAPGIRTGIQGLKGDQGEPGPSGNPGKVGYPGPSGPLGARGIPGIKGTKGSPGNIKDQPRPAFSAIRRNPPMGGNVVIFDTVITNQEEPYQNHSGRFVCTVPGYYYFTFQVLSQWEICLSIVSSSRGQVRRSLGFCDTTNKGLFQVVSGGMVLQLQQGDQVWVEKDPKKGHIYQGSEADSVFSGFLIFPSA
T1 sequence (P02746 28-253, chain 2 of 3): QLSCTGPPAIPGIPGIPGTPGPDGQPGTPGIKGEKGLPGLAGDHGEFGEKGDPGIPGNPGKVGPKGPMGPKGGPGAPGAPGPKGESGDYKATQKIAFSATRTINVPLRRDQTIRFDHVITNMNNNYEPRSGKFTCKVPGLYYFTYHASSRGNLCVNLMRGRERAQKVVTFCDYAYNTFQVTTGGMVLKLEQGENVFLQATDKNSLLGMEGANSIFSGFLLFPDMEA
T1 sequence (P02747 29-245, chain 3 of 3): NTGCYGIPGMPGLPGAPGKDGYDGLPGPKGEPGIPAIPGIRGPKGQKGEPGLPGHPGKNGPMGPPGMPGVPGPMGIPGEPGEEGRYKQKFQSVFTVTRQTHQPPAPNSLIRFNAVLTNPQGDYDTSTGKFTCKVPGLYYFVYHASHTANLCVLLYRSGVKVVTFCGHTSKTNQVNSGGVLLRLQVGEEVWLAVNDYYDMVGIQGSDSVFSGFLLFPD

B1: C-reactive protein (native, human) (natural protein)
chain: QTDMSRKAFVFPKESDTSYVSLKAPLTKPLKAFTVCLHFYTELSSTRGYSIFSYATKRQDNEILIFWSKDIGYSFTVGGSEILFEVPEVTVAPVHICTSWESASGIVEFWVDGKPRVRKSLKKGYTVGAEASIILGQEQDSFGGNFEGSQSLVGDIGNVNMWDFVLSPDEINTIYLGGPFSPNVLNWRALKYEVQGEVFTKPQLWP
notes: C-reactive protein, human, native pentamer of subunits of ~25 kD; Used as purified protein, as purified protein added to diluted serum, and as the endogenous protein of normal human serum; also called CRP; native CRP; source: also endogenous, normal human serum
In the case of B1, the binding result is “binds”.

For the origin of these results see article PMC4882459 (The Journal of Biological Chemistry, 2016).
